Measured values reported in doi:10.1101/2020.12.22.423932.

Molecular target: human RPN2, wild type, full length (human) (UniProt Q99460)
Assay: MST

human RPN2, wild type, full length (human), sequence (Q99460 whole entry): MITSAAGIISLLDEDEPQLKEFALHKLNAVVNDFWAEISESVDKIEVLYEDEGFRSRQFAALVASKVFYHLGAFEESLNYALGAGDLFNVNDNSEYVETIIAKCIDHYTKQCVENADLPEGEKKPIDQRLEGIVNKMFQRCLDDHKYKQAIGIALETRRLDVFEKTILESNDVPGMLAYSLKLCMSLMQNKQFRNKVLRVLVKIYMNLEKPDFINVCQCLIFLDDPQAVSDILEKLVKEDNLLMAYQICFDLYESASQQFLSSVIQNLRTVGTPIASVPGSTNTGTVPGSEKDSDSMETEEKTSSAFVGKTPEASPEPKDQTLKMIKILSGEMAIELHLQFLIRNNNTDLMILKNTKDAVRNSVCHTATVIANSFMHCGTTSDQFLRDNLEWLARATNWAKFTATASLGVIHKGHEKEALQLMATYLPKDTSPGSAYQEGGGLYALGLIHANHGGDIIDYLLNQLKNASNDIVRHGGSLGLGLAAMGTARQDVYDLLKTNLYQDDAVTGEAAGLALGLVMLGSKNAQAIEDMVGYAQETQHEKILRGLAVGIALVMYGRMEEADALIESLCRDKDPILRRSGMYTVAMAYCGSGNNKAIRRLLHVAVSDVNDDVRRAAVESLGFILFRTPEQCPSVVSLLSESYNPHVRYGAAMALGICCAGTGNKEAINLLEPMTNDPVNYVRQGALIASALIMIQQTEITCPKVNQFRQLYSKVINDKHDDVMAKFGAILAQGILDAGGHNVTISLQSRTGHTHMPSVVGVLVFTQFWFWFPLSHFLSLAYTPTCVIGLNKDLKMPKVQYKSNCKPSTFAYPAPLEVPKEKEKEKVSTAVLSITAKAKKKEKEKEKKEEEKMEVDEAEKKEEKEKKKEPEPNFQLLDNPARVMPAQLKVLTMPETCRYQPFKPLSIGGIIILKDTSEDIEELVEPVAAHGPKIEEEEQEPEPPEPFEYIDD

Kd: 2120 µM
Substance: mono-ubiquitin (from UniProt P0CG48 1-76) (natural protein; other documents disagree on this pair)
